The text below walks through data of paper PMC8133684, “The URL1–ROC5–TPL2 transcriptional repressor complex represses the ACL1 gene to modulate leaf rolling in rice”.

Series [1] deals with T1, GST-URL1 (ROC8) (Oryza sativa L., UniProt Q69T58 1-710).
T1 sequence: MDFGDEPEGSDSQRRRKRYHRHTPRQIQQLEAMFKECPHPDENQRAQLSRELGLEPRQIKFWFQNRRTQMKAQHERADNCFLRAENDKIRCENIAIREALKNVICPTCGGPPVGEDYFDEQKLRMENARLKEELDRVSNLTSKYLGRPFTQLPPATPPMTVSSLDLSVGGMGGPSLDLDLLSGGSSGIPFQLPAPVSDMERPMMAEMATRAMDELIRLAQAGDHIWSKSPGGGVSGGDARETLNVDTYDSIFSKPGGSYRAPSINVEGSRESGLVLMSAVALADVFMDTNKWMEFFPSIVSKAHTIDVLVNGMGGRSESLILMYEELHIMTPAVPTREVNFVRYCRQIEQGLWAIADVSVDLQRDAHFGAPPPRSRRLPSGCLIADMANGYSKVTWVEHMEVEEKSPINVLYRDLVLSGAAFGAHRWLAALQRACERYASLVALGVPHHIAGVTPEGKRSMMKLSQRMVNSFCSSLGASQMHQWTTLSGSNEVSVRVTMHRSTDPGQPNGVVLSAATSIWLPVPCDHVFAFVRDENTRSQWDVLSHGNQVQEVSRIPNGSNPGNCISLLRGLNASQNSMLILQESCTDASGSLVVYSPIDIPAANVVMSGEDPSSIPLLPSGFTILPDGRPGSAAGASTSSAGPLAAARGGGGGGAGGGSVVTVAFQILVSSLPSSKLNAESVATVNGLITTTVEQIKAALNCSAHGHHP
The experiment in a line: EMSA; LightShift Chemiluminescent EMSA Kit; buffer, salt, pH and temperature not stated. The settings on record: protein: recombinant; tags: N-terminal GST (pCold-GST); chain copies: 2; label: 3' biotin; blunt.

Series [2] deals with T1, GST-URL1 (ROC8). In words: competition; 100-, 300-, 1000-fold excess vs labeled L1-box II probe; LightShift Chemiluminescent EMSA Kit; buffer, salt, pH and temperature not stated. The settings on record: protein: recombinant; tags: N-terminal GST (pCold-GST); chain copies: 2; blunt.
In series [3] the target is T1, GST-URL1 (ROC8). The experiment in a line: competition; 100-, 300-, 1000-fold excess vs labeled L1-box I probe; LightShift Chemiluminescent EMSA Kit; buffer, salt, pH and temperature not stated. The settings on record: protein: recombinant; tags: N-terminal GST (pCold-GST); chain copies: 2; blunt.

B1: mACL1 L1-box II (L1 box deleted) (dsDNA)
DNA 1: TTATCATAAAAGAAACTATAATATTAACTTACATTACTTTAAGGCAA
DNA 2: TTGCCTTAAAGTAATGTAAGTTAATATTATAGTTTCTTTTATGATAA
With B1, the binding result in the series with GST-URL1 (ROC8) [1] was “no binding”.

B2: mACL1 L1-box I (L1 box deleted) (dsDNA)
DNA 1: ACCGACTAATGGCAATATAAAGATATACCATATCCTGTACTAAGCAATAACCTA
DNA 2: TAGGTTATTGCTTAGTACAGGATATGGTATATCTTTATATTGCCATTAGTCGGT
Turning to B2, the binding result with GST-URL1 (ROC8) [1] was “no binding”.

B3: ACL1 L1-box II unlabeled competitor (dsDNA)
DNA 1: TTATCATAAAAGAAACTATAATATTAACTTATACATTTACATATTTATACTAAATTTTTAAATAAGGCAA
DNA 2: TTGCCTTATTTAAAAATTTAGTATAAATATGTAAATGTATAAGTTAATATTATAGTTTCTTTTATGATAA
As to B3, the binding result in the series with GST-URL1 (ROC8) [2] is recorded as “binds”.

B4: ACL1 L1-box I unlabeled competitor (dsDNA)
DNA 1: CCGACTAATGGCAATATATACGTGCAAAGATACATTTATATACCATATCCTGTACTAAGCAATAACCTA
DNA 2: TAGGTTATTGCTTAGTACAGGATATGGTATATAAATGTATCTTTGCACGTATATATTGCCATTAGTCGG
For B4, the binding result in the series with GST-URL1 (ROC8) [3] is given as “binds”.
